Test results: US20050032189A1 (published 2005)

Target: T1, Vitronectin receptor, αVβ3 integrin, localized on the HUVEC surface (human, UniProt P06756 31-1048; P05106 27-788)
T1 construct: whole, on cells; Present on bFGF-stimulated HUVEC in the cell adhesion assay; also called integrin αVβ3
Experiment: HUVEC adhesion assay on Saxatilin- and Vitronectin-coated plates

T1 sequence (P06756 31-1048, chain 1 of 2): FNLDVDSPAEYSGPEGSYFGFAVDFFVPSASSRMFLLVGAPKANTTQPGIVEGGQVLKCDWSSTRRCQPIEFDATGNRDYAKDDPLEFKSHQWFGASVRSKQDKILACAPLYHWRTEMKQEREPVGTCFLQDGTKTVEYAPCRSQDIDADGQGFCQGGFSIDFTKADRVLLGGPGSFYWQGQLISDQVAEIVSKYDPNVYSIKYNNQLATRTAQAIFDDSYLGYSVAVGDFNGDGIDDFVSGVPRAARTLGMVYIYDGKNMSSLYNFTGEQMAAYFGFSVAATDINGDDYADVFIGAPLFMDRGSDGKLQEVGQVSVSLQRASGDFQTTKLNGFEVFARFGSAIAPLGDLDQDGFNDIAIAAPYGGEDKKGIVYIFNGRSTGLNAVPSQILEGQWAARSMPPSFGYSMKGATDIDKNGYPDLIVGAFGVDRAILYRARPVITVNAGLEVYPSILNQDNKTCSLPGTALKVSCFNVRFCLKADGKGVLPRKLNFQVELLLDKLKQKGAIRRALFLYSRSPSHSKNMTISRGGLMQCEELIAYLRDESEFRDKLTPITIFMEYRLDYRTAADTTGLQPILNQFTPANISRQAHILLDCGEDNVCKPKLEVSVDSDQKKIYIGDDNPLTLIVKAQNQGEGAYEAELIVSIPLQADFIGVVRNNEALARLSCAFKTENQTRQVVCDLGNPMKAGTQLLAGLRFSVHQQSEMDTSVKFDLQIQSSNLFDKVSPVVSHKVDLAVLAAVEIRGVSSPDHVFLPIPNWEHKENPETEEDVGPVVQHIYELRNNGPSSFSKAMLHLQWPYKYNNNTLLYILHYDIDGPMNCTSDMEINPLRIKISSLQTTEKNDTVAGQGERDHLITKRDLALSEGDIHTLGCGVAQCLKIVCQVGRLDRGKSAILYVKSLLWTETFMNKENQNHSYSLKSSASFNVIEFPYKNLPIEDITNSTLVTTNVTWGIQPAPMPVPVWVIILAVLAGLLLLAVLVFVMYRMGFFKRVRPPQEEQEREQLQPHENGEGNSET
T1 sequence (P05106 27-788, chain 2 of 2): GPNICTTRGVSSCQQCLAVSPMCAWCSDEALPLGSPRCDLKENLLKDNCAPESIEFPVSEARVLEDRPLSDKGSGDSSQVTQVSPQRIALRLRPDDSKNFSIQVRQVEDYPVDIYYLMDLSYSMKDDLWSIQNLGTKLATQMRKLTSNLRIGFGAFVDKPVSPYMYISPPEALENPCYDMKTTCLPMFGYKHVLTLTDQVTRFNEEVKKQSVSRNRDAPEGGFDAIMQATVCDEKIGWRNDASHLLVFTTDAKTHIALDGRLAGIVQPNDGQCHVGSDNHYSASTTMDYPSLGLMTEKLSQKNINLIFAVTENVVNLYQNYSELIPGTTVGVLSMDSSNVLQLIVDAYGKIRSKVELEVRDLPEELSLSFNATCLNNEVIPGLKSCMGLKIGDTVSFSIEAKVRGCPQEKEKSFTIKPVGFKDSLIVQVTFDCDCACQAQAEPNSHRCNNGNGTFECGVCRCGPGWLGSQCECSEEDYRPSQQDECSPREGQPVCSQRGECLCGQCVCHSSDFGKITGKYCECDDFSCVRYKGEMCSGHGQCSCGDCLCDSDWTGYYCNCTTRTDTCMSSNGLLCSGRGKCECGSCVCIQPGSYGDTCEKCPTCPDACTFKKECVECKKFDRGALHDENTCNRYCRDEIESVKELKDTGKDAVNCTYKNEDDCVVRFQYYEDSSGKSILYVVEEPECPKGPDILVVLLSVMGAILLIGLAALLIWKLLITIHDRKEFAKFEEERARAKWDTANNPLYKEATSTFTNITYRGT

B1: recombinant Saxatilin (ligand)
chain: EAGEECDCGAPANPCCDAATCKLRPGAQCAEGLCCDQCRFMKEGTICRMARGDDMDDYCNGISAGCPRNPFHA
binding result: binds
